According to the nanobody polyreactivity screen of Harvey et al. (2022):

Experiment: yeast display, Sf9 membrane polyspecificity reagent, FACS + sequencing; frameworks hold sequencing errors
Outline: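 Nanobodies came from a synthetic yeast display library in Saccharomyces cerevisiae BJ5465, induced with galactose for 36–48 hours and stained for 1 hour at 4 °C with 10% biotinylated, detergent-solubilized Sf9 membrane reagent. Cells were enriched on streptavidin microbeads and then FACS-sorted, with low and high (top ~1%) gates set on anti-HA fluorescence for expression and streptavidin fluorescence for reagent binding. Each polyreactivity label reflects the gate a clone came from. Genes were amplified by colony PCR, sequenced by MiSeq 2 × 250 and filtered by CDR length.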

Sequence | polyreactivity (PSR sort gate)
QDQLVESGGGLVQAGGSLRLSCAASGSTVYFNAMGWYRPAPGKERELVASITSGGSTNYADSVKGRFTISRDNAKNTVYLQMNCLKPEDTAVYYCAAGLYLQGPLDYWGQGTQVTVSS | low polyreactivity
QDQLVESGGGLVQAGGSLRLSCAASGTIFFGYSMGSYRQAPGKERDLVASISSADTTYYADSVKGRFTISRDNAKNTVYLQMNSLKPEDTAVYYCAAREGQLWEDGDYWGQGTQVTVSS | low polyreactivity
QDQLVESGGGLVQAGGSLRLSCAASVSTFILNAMGWYRQAPGKERELVATISSSDTSTYYADSVKGRFTISRDNAKNTVYLQMNSLKPEDTAVYYCNADYYTTSYLQRVYHYGVEYDYWGQGTQVTVSS | low polyreactivity
QDQLVESGGGLVQAGGSLRLSCAAYGSILGGNAMGWYRPAPGKERELVAAITFSGGGTYYADSVKGRFTISRDNAKNTVYLQMNSMKPEDTAVYYCAADKDGYTYEFDYWGQGTQVTVSS | low polyreactivity
QDQLVESGGGLVQAGGSLRLSCAPSGFIFSNYAMGWYRHGPGKERELVAAISFTGSNTYYADSVKGRFTISRDYAKNTVYLKMNSLKPEDTAVYFCNAPLEWGVYAAQNWDEGYWGQGSQVTVSS | low polyreactivity
QDQLVESGGGLVQAGGSLRLSCASSGFTFSKNAMGWYRQAPGKERELVAAISRGGGRTYYADSVKGRFTISRDNAKNTVYLQMNSLKPEDTAVYYCNVEKVGPGYDYWGQGTQVTVSS | high polyreactivity
QDQLVESGGGLVQAGGSLRLSCASSGLIFYTSSMGWYSQAPGKESGLVAAITRSDSSTYYADSVKGRFTISRDNATNTVYLQMTSLKPEDPAVYYFATPSVFLFSEYDYWGQGTKVTVSS | low polyreactivity
QDQLVESGGGLVQAGGSLRLSCASSGYIFYYNAMGWYRQAPGKEWELVAAITGDSGTYYADSVKGRFTISRDNAKNTFYFQMNCLKPEDTAVYYCNAYTFYQYYRWYVYWGQVTQVTVSS | low polyreactivity
QDQLVESGGGLVQAGGSLRLSCDASGSIFRYYTMGWYRQAHGQERELVARISYSGGRTYYAVSVKGRFTISRDNAKNTVYLQMNSLKPEDTAVYYCNTVTRWVGKLEYWGHGTQVTVSS | high polyreactivity
QDQLVESGGGLVQAGGSLRLTCAASGFNYRRNAMGWYRQAPGKERELVAAITASGGRTYYADSVKGRFTISRDNAKNTVYLQMNSLKPEDTAVDYCARDTAGFTRFSSKYDYWGQGTQVTLSS | high polyreactivity
QDQLVESGGGLVQAGGSLRLTCAASGSTFGVYTMGWYRQAPGKERELVAAITKSGGSTYYADSVKGRFTISRDNAKNTVYLQMNSLKPEETAVYYCATDADRPPRTPDISYVSNFDYWGQGTQVTVSS | low polyreactivity
QDQLVESGGGLVQAGGSLSLSCAASGSTFPYYAMGWSRPAPGKERELVAAISGSGGTTYYADSVKGRFTISRDNAKNTVYLQMNSLKPEDTAVYYCAVDIGVGYGYYYWGQGTQVTVSS | low polyreactivity
QDQLVESGGGLVQAGGSLSLSCAASGSTFQPYTMGWYRQAPGKERELVAAITGRGGSTYYADSVKGRFTISRDNAKNTVYLQMNSLKPEDTAVYYCAAGAYRRNKSDYYYWGQGTQVTVSS | low polyreactivity
QDQLVESGGGLVQAGGSLSLSCAAYGRIFSYNAMGWYRQAPGKERELVAAISYSGGRTYYADSVKGRFTISRDTAKNTVYLQMNSLKPEDTAVYYCAAEAHLAGYYRYYGGYGYDYWGQGTQVTVSS | high polyreactivity
QDQLVESGGGLVQAGGSLSLSCADSGLTFGANTMGWYRQAPGKERELVATITQSVGRTYYADSVKGRFTISRDNAKNTVYLQMNSLKPEDTADYYCNAELYTVRVYTHPVYVRHDYWGQGTQVTVSS | high polyreactivity
QDQLVESGGGLVQEGGSLRLSCAASVRIFGPYAMGWYRQAPGKERELLAAITRGGSTSYADSVKGRFTISRDNAKNTVYLQMNSLKPEDTAVYYCAADTLRWWDGFDYWGQGTQVTVST | low polyreactivity
QDQLVESGGVLVQAGGSLRLSCAASGNIFAVYAMGWYRQAPGKERELVAAITTGTNTYADSVKGRFTISRDNAKNTVYLQMNSLKTEDTAVYYCAARSYRPLDYWGQGTQVTVSS | low polyreactivity
QDQLVESRGGLVQAGCSLRLSCAASGFIFLHYTMGSYRQAPRKERELVAGITYGHGSTSYADSVKGRFTISRDNAKNTVYLQMNRLKPEDTAVYYCATRYWYRTSYQLYDYWGQGTQVTVSS | low polyreactivity
QDQLVESRGGLVQAGGSLRLSCAASGRTFISNAMGWYRQAPGKERELVAADISWSGGSTYYADSVKGRFTISRDNAKNTVYLQMNIMKPEDTAVYYCNTVIRPYLAYTWSEIFDYWGQGTQVNVSS | low polyreactivity
QDQLVESRGVLVQAGGSLRLTCAASGRTFYLNAMGWNRQATGKEREFVAAITWSSGSTYYADSVKGRFTISRDNAMNTVYLQMNSLKPEDTAVYYCAAAGRWSAYMYSWGQGTQVTVSS | high polyreactivity
QDQLVESVGGLDQAGGSLPLSCDASGSIFPDYAMGWYRPAPGKERELVAAITSSGSTNNADSVKGLFTISRDNAKNTVYLQMNSLNPEDTAVYYCNAVVVQEESGYTRYDYWGQGTQVTVSS | low polyreactivity

Sequence | polyreactivity (PSR sort gate)
QDQLVESVGGLVQAGGSLRLSCAASGRTIDPNAMGWYRQAPGKERELVAAITRTGVRTYYADSVKGRFTISRDNAKNTVYLQMNSLKPEDTAVYYCAASYSGRQDRYPHYDYWGQGTQVTVSS | low polyreactivity
QDQLVESVGGLVQAGGSLRLSCAASGSIFDQNAMGCSRHAPGKESELVAAITRGGSTKYADSVKGRFTISRDNAKNTVYLQMNSLKPEDTAVYYCARTDRRRYQPYEYWGPGTQVTVSS | low polyreactivity
QDQLVESVGGLVQAGVSLRLSSASSGRTFWAYAMGWYRQAHGKERELVAAISRNGGSTYYADSVKGRFTISRDHAKNTVYLQMNSLKPEDTAVYYCAAESRYYYELGYWGQGTQVTVSS | high polyreactivity
QDQLVETGGGLVQAGCSLRLSCAASGSIFTGYTMGWYRQAPGNEREFVAAIRATGGSTYYADSVKGRFTISRDNAKNTVYLQMNSLKPEDTAVFYCAVRSGGGSVRKRYGYWGQGTQVTVSS | high polyreactivity
QDQLVETGGGLVQAGGCLRLSCAASGRNFFGYAMGWYRQAPGTERELLAAITQSGGRTYYADSVKGRFTISRDNAKNTVYLLMNSQKPEDTAVYYCAATWLGTRNLVHITLYYWGQGTQVTVSS | low polyreactivity
QDQLVETGGGLVQAGGSLRISCADSGFTFGVNAMGWYREAPGKERELVAVITSGGNTYYADSVKGRFTISRDNAKNTDYCQMNSLKPEDTAVYYCAAYGRDSWDRDYWGQGTQVTVSS | low polyreactivity
QDQLVETGGGLVQAGGSLRLSCAASGIIFYPNAMGWYRQAPGKERELVAAISWRSGSTYYADSVKGRFTISRDNAKNTVYLQMNSLKPEDTAVYYCAADRRRSYIWRYDYWGQGTQVTVSS | low polyreactivity
QDQLVETGGGLVQARGSLRLSCAASGITFDKYAMGWYRQAPGKERELVAAISGSDGSTYYADSVKGRFTISRDNAKNTVYLQMNSLKQEDTSVYYCAAESEYAGTFEYDYWGQGTQVSVSS | low polyreactivity
QDQLVETVGVLDKAGGSLRLSCAASGRTFAIYAMAWYRQAPGKEREFVAASSWSGGDSYYADSVKGRFTISRDNAKNSVYLQMNSLKPEHTAVYYCAARDNDYEGRYLQYDLDYWGQGTQVTVST | low polyreactivity
QDQLVKSGGGLVQAGGSLLLSCAASGHTFSGYVMGWYRPAHGKERELVAAIRSGGSTYYADSVKGRFTISRDNAKKTVYLQMNSLKPEDTAVYYCAKSVTRYRTSAYGYWGQGTQVTVSS | high polyreactivity
QDQLVQSRGGLVQAGGSLRISSAASGGTYFGYAMGWKRQAPGKERELVAAIRWSDGRTYYADSVKGRFTISRDNAKYTVYLQMNSLNPEDTAVYYCNADDARLFDYWGQGTQVTVSS | low polyreactivity
QDQLVVSGGGLVQAGGSLRLSCAAYGFIVRSYDMGWYIQAPGKEREMVAAITSDVNSYYADSVKGRFTISRDNAKNTVYLQMNSLKPEDTAVYYFNADAVVYRDYQDYDYWGQGTQVTVSS | low polyreactivity
QDQLVYSGGGLVQAGGSLSISCASSVSTFGGYAMGWYRQAPGKERELVSAITWSAGSTYADSVKGRFTISRDNAKNTVYLQMTSLKPEDTAVYYCAAYPYVGYVSLSAYDYWGQGTQVTVSS | low polyreactivity
QDQPVESGGGLVQAGGRLRLSCAASGIICSGYAMGWYRQAAGKERELVAAISNDGTRTYYADSVKGRFTISRDNAKNTVYLQMNSLKPEDTAVYYCAAYSRLNVLGYDYWGQGTQVTVSS | high polyreactivity
QEQLHESGGGQVQAGGSLLLSCAASGNIIRYYYIGCYRQAPGKEPELVAAITYGTSTNYADSVKGRFTISRDNAKNTVYLQMNSLKPEDTAVYYCAVDVNYGDPLDNWGQGTQVTVSS | high polyreactivity
QEQLQESGGCLVQAGCSLRLSCAPSGTISDSGLMGWYRQPQGKERELVAGISSGGITNYADSVKGRLTISRDNAKNTVYLQMNSLKPEDTAVYYCAADSPVSVTADDGYWGQGTQVTVSS | low polyreactivity
QEQLQESGGGLVQAGGSLRLSCAASGSIFHLHIMCRYRQAPGKERESVAAISYGTSTYYADSVKGRFTICRDNAKNTVYLQMNSPKPDDTAVYYCAALFLVSKHHHYWGEGTQVTVSS | low polyreactivity
QEQLQESGGGQVQAGGSLLLSCAASGNIIRYYYMGWYRQAPGKERELVAAITYGTSTNYADSVKGRFTISRDNAKNTVYLQMNSLKPEDTAVYYFAVDVNYGDPLDNWGQGTQVTVSC | high polyreactivity
QEQLVDSGGGLVQAGGSLRLSCAASVRIFGRYVMGWYRQAPGKERELVAAITSRDDSTYYADSVKGRFTISRDNAKNTVYLQMNSLKPEDTAVYYCAATWGRGYDYCGQGTQVTVSS | high polyreactivity
QEQLVESGGGLDQAGGSLRLSCAASGSTFYAYAMGWSRQATGKETELVAAISSDGTNYADSVKGRFTISRDNAKNTVYLQMNCLKPEDTAVYYCAADLLLTSSQDNDYWGQGTQVTVSS | low polyreactivity
